Experimental data: US20170327598A1 (published 2017)
Read-outs that look alike come from different tables or passages of the source.

Columns and labels:
Assay in all cases: sandwich ELISA, STAT protein coated at 0.5 µg/mL
STAT 2 protein [1] = biological target: T1, STAT 2 protein (UniProt P52630 1-851, limits assumed)
STAT 4 protein [2] = biological target: T2, STAT 4 protein (UniProt Q14765 1-748, limits assumed)
T2 sequence (looked up): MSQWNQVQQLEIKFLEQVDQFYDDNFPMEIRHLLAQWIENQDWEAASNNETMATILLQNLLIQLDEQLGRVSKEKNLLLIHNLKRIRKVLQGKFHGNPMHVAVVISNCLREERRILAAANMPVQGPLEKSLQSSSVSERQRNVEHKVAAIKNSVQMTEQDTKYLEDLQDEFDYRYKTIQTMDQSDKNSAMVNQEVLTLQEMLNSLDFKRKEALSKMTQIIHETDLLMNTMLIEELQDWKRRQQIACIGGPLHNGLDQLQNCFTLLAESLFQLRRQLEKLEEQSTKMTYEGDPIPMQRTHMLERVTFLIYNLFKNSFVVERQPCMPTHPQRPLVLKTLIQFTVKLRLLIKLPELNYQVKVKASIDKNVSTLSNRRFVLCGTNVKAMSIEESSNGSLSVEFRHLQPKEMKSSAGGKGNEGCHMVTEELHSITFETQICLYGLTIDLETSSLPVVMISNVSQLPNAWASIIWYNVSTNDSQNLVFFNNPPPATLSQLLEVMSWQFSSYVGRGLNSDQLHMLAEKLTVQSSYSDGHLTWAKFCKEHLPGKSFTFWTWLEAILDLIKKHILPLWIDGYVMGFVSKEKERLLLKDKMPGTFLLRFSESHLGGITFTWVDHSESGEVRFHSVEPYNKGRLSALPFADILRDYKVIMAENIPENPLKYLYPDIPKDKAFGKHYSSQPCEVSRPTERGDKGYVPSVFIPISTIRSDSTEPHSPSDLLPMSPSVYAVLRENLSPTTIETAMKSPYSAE

STAT 5a protein [3] = biological target: T3, STAT 5a protein (UniProt P42229 1-794, limits assumed)
T3 sequence (looked up): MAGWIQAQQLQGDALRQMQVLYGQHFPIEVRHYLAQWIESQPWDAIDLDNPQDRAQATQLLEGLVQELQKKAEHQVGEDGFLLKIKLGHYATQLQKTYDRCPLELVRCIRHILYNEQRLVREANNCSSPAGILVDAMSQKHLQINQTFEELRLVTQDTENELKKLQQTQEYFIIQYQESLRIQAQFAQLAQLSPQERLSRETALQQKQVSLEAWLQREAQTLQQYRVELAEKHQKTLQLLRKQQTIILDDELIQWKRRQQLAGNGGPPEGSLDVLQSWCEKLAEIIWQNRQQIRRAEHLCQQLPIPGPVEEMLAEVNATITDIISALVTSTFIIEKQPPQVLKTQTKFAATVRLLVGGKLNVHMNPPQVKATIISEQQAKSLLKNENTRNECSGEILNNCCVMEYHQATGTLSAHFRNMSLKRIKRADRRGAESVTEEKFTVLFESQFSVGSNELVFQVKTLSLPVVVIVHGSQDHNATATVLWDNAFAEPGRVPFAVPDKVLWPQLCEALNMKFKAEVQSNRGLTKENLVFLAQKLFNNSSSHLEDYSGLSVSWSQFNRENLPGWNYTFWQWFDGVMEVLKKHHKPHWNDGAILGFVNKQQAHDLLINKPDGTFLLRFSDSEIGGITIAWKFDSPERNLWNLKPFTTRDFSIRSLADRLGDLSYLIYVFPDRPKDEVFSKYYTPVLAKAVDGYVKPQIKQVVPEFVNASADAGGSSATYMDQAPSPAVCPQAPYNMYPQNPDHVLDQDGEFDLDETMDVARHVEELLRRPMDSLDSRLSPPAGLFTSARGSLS

STAT 5a protein [4] = biological target: T3, STAT 5a protein; remark: listed apart in the source
STAT 3 protein = STAT 3 protein (UniProt P40763 1-770, limits assumed)
STAT 2 protein [5] = biological target: T1, STAT 2 protein; remark: listed apart in the source
STAT 4 protein [6] = biological target: T2, STAT 4 protein; remark: listed apart in the source
STAT 5a protein [7] = biological target: T3, STAT 5a protein; remark: listed apart in the source
STAT 1 protein = biological target: T4, STAT 1 protein (UniProt P42224 1-750, limits assumed)
T4 sequence (looked up): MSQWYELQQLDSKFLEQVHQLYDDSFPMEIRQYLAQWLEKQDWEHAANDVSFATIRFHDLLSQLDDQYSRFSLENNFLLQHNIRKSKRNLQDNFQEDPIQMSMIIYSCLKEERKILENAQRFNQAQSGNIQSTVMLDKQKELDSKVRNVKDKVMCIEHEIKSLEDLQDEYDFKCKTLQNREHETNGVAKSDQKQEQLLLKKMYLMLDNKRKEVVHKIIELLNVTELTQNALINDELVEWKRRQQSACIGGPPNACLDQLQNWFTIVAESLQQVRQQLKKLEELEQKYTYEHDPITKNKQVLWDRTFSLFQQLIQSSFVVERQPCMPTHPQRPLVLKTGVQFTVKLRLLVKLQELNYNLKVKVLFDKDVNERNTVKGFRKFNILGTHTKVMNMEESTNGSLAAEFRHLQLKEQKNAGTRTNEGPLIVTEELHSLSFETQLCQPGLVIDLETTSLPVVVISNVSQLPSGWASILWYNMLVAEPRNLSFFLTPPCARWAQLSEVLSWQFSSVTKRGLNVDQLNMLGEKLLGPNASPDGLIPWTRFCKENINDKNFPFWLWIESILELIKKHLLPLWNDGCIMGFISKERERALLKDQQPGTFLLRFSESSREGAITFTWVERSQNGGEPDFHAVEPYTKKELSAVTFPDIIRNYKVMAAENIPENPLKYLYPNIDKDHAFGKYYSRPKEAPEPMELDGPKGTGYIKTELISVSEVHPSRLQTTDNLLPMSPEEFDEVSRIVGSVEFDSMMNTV

T1 sequence (P52630 whole entry): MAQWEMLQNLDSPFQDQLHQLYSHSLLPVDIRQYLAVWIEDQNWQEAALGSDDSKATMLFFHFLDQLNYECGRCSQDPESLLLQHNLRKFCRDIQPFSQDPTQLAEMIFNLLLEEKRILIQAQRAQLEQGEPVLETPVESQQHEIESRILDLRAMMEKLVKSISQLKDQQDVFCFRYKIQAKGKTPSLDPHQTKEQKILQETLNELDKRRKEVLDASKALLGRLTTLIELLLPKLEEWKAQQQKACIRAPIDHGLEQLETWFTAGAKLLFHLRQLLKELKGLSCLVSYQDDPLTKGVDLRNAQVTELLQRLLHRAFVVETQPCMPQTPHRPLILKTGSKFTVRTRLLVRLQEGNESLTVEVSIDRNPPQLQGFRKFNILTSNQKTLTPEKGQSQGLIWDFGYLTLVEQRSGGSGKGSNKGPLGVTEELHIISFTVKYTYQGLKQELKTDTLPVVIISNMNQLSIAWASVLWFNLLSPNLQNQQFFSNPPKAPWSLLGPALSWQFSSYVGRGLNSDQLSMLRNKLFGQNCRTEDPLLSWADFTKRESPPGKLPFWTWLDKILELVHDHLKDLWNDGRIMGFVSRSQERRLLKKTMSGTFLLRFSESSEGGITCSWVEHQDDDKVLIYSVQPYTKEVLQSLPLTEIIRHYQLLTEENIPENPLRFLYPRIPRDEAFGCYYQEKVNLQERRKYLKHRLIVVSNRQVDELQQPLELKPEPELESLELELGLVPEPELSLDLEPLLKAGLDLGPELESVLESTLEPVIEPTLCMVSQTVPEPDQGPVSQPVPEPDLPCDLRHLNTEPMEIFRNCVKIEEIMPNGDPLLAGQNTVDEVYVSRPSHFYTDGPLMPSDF

- Mean OD450 (STAT 2 protein [1]): 0.023 OD450
- Mean OD450 (STAT 4 protein [2]): 0.083 OD450
- Mean OD450 (STAT 5a protein [3]): 0.107 OD450
- Mean OD450 (STAT 5a protein [4]): 0.821 OD450
- Mean OD450 (STAT 3 protein): 2.76 OD450
- Mean OD450 (STAT 2 protein [5]): 1.85 OD450
- Mean OD450 (STAT 4 protein [6]): 3.14 OD450
- Mean OD450 (STAT 5a protein [7]): 2.73 OD450
- Mean OD450 (STAT 1 protein): 1.94 OD450
B1: anti-STAT3 VHH13 (SEQ ID NO:3) sdAb (VHH)
VHH: HVQLVESGGGSVQAGGSLRLSCAASGANGGRSCMGWFRQVPGKEREGVSGISTGGLITYYADSVKGRFTISQDNTKNTLYLQMNSLKPEDTAMYYCATSRFDCYRGSWFNRYMYNSWGQGTQVTVSS
